A protein production outcome set (Wang et al. 2014)

Assay: label from the status in PepcDB records

Sequence | protein production
MIGKTVIVGSKNMKEKILKFITSKFFVLGIQLLATIAVVYFTFKLDLVPTKYLIAGIVVLALLLAGFFGIIYSSEQKIKKGLSSKRGIVTKIISLLTSIILIAGCTYISRGNNFIENVSNATGQEYVVSVISLKNGKITKLKDLDSSKKIGVSYEKDTVTIAEALKDLDTEIGDHEYTKYDNYASLADALYEGKVDAIVVGEQYRTMLQTNHEEFNDVTKVLKSYAYDAKMEVTTKQTDVTENAFSIYVTGIDVYGSLKTVSRSDVNLIVTVNPKTKQILMTSIPRDCQINLHKNGKMDKLTHTGIYGTSETINTIQDLLEMKINYFARTNFSGMTNIVDALGGITVNSSEAFETLHGNYQISEGLNEMDGDKALCFVRERKRLKRGDFARGENQQKVLKAMLDKAMSPKIITNFNNILSAVEGCFETDMSDKEIKSLINMQLNDMADWKIINVQIEGEYQLMDDTFSMKGTNSDVMIPFESHIERVRELINKVEEGKEIKDSELKGLTH | failed
KKTEWSREEEEKLLHLAKLMPTQWRTIAPIIGRTAAQCLEHYEFLLDKAAQRD | not failed
MEPGPEDYLVCAIAKPADKRLVVEKLLGKGARFFTLIHPSVIMGENVVIGQGAVICPSTVLSVDLRIGAFVTLNIGCLVGHDADIGDFSTLSGHCDITGGVVLEEEVFMGTHASVLPNVKVGKQAVVGAGSVAIRNVAAGITVFGVPAKRISGLEHHHHHH | failed
MGSEVVNPTKPRFDLSMSKRTRKPWSSLINDMHHHAICTQSSQPKPDKEQEQIEDKEIDRKSLNNLMRCDEKLNGEADVNNKSSLDQHFEDGEGIKPTMQLVVKKEKQGGLKFKGLSQHIFRLIEFLLSYRTDY | failed
MLLIFFKKYEQSDIMRKLFLLSILMIGVIVAFAGCVEESKTTTQLQQTTQSESQKAETQPKLGVNVVRYAETFKLYPHWDEGYCVVADSVGNKFVLVEGNAKAPNISDGKIIKVPVKRIVTDFYCPIISAADILNAYHHTIVGAPKYAVEKSPKLKELFDEGKVVDIGSPSKGVNYELIVNLTPDIVFLGDWKSEDVVEEKLKELGVTVSRFYTYQEPTYMGRVEWIKFAAAFWGSNAYKKADKWFENVVKVRENILKKVQNVTNEPTVVIFSWSKTKNMPGIYGNDSYYSKMIAEFKGKNVFDDYNRGYQYVDKETFYERAMNADVVILIWFYGDVKTKEDLLKINPNFAEFKAFKTGRFYVSHPDYYVWEARDPAGYMMDFAKMIHPELFGGDDDLKYYYKIK | failed
MLGTSFNNFGISLSHKRYFSGKVDEIIRCTMGKRIVKISSTKINTSILSSVSEQIGENITDWKNDEKKVYVSRVVNQCIDKFCAEHSRKIGDNLRKQIFKQVEKDYRISLDINAAQSSINHLVSGSSYFKKKMDELCEGMNRSVKNDTTSNVANLISDQFFEKNVQYIDLKKLRGNMSDYITNLESPFLEHHHHHH | failed
MTNDQIKKAKNGTYYFRANLGYDVKGKKIQKYRSGFKTKKEAREEYSRLLLMNPDDLNENKDKMMFEYYINEIFLPWYKTQVKLRTYENRIPTIQKHFPYFYKMAVSDIEPINVQDWQLKMTKNLKPSYVRAVQGLFSVAMDRAIVLGITTTNPSKIIGNVKKVKPKVEFWTKEEFEKVLSLIYKEDYYQNFLFISLWFLFMTGMRIGEATAIQWEDIDFETGVVSITKTLYYKSQIDYKFVEPKTKASVRHIVLDKVTLSYLADWREVQQNVVKTNFVMSYNGIPTQKHTIAHAIDRFSKMAGIHRIKIHALRHSHASLLISMGENPLIIKERLGHEDIETTLGTYGHLYPNSNFEVASKLNGIISFQPAEQNLDSSPKNQFTVNYRQNKQPNSAIKVQ | failed
MTRSANPSLFLPLRAAWLALMRFQAKSGFVMSSHVAMSMMMALFPFILFTVALAGSLSQDLVTDDLIQLIFGTWPEQVATPIVAELKAVLAGANSRVMTVGGVLAVYFASNGVDAVREAMSRAYHDAETRPFWKTRLLCIAIVVGGGAIVLAVAAFEVVMPIYTRLVTDALPGAAPDWLSVERLSWIFVVAMPAGAVLACHALLPAGRHPLRRILPGVVLTLVLWAGCGWGFSLYIANFASYSTTYAGLAGAMAALIFLYLNAAILILGAEFNGALMDLSGGPD | not failed
MHLSRCRKCGRVMKGERIDPYRVKLTCSCGFSDFRTMTEKVKTVNPFFQKGGFSPLLESERGKMVLTMQRANREHLEIISLEEISMLVSSDFDLPEVLQHVTAKVATQLKVSVCNIYLREGDEVVLAATHGFDPAFIGKIRIKIGDGITGSVARDGQYISLSRASQDPRYRYFPELQEEKYNSMLSFPIGDKKEVYGVINLNTTSIRSFHEDEIYFVSIIANLILTAIKLRQQVASSRKAAEASA | failed
MSLDNSRTRPRVGHIQFLNCLPLYWGLARTGTLLDFELTKDTPEKLSEQLVRGDLDIGPVTLVEFLKNADDLVAFPDIAVGCDGPVMSCVIVSQVPLDRLDGARVALGSTSRTSVRLAQLLLSERFGVQPDYYTCPPDLSLMMQEADAAVLIGDAALRANMIDGPRYGLDVHDLGALWKEWTGLPFVFAVWAARRDYAEREPVITRKVHEAFLASRNLSLEEVEKVAEQAARWEAFDEDTLAKYFTTLDFRFGAPQLEAVTEFARRVGPTTGFPADVKVELLKPEGHHHHHH | not failed
MSITERFFYLEKEPCVIYLPEKPNGFSVMLLGDYNYFIENGTSLWTQHTGRSYFLHGLIEEGYTVFSSNLYGRHWGNDQSVRLAKRLYDVVLRKETLNAKMHIMADGMGALVALEMMNKYPECIRSVIMLNPCLDLPEYVEFEKEHKFFYKRLLKELSLAYDAKEEELEA | failed
MSGSEYSEVDVNEGDSIWALADQYAAKSDMAKADFVSWVEKENNLTDGHVKAGDYVVIPVHETKLQRSDSTIQLANQLEHHHHHH | not failed
MAKKKKEILFCDYYEDWVETYKVGAIEDVTLNKYYVAARQLRDICPKLLMSDFSRKDYQLIMNEYGKTHEKQTAKDFHHHIKAAILDAYHDGLLKSDPTYRAVIKGKEPGKKKLEHHHHHH | not failed
MNLKQISAIIIVKNAKQTLLECLNSLKDFDEIILLNNESSDNTLNIANEFKKDFANLHIYHSAFIGFGALKNLALSYAKNDWILSIDADEVLENECIKELKNLELQEDNIIALSRKNLYKGEWIKACGWWPDYVWRIFNKNFTRFNDNLVHESLVLPSNAKKIYLKNGLRHYAFRDISHLIDKMQYYSSLWAKQNIHKKSGVLKANLRAFWTFFRNYFLKNGFLYGYKGFIISVCNALGTFFKYMKLYELQKQKPKTCALIITTYNQKERLKLVLDSVKNLAFLPNEVLIADDGSKEDTARLIEEYQKDFPCPLKHIWQEDEGFRAAKSRNNAIKASKSEYIILIDGDMILEKDFVKNHLEFAKRKVILQGSRVILNKNESEEILKNNNYSLAFNKKGFKNQRSIFLAKCVYKFSKLTKKFFKKSQLVKGSKTCNMSFYKSDFEAIEGFNEKFIGWGREDSEFVARFLFNDGVFKRLKFNALAYHIYHEENSKNMLEINHQIYLETIKNEKTTWRLEHHHHHH | failed
MKKLPLVFSGCLLGLAGAGNLILDTLPVLSHLFSLIGLVLWIYFLILHLFNWKETKQELTKPPLLSGMATFPMAGMILSTYVFRVFSYLPLVAQGIWWFSFLLDLTLIAGFTIKFACPGRRVHATPSWTVLYVGIAVAALTYPLVGIIEIAYATLSFGFLLTFYLYPLIYSDLKKHPLPLALLGQEGIYCAPFSLLLASLVRVGGTSLPTWVLIVMILASQSFFFFVLTRLPNILKQGFQPAFSALTFPTIITATSLKMAQGILKLPFLDYLVLAETIICLTILFFVLGAYLIWLRKKV | failed
MDQKEAPSFTEASVHDPSVIKVEDTFYVFGSHLAAAKTEDLRNWTQIATHVHEGNPLIPNVFVELAEAFEWANSNTLWAADVIQLEDGRFYMYYNACQGDAPRSALGVAVADDIEGPYENLGVFLKSGMWGEESPDGTIYDANVHPNAIDPHVFFDEEGKLWMVYGSYSGGIFILEMDPDTGFPLPGQGYGTHLMGGNHSRIEAPYIHYDKETEYYYLYVTFGGLDSTGGYNMRVARSKQPDGPYVDGEGHLMSEVRGAPGTLFDDASIEPYGVKQMGNFLFKRELGERGTGYVSPGHNSVYYDDEVDKIFLFFHTRFPERGEAHEIRVHQMFMNRKGWPVIAPYRYLEHHHHHH | failed
MLAELFAVMAPVLFGAGVGYVWVRLGHAYPTEFVSRIVFNIGSPCLILATLAHTRVDLHSFGRMALASALICVCMAALGWAAARLGRQEWQVLVPAYSFPNVGNMGLPVCLYAFGEAGMTLAVAFYLIMSIGNFSLGVFWMSGERSWRSLLGNPILLSVLLALLLMGLDLQLPRWMANTVDLMAGLTIPLMLITLGVSLASIRPRQLGNGFFYGGLRLLLGALVGWSVALALQLPPLAQGVLVVQSSMPVAVFNYLYALRGNRSPDQVASLVLCSTLLSFAFIPLLLTWWLPALR | failed
MIYENHANTAENNGPLALVLGANGGVGSHVLKMLLQRGWQVRALTRQRVAAGASDGIERVTGDVMNRQDVMDAAKGATLIVHAVNPPGYRDWERQVLPMLDNTIAAAEACGARILLPGTVYNFGPDAFPLLKEDSPQQPFTRKGALRVEMERRLKMASMRGVPVLIVRAGDFFGPDAKNNWFSQMLVRPGKPVRSVQNPAAPHAGHQWAYLPDVAETIGRLLDRSGELPPFAVYHMEGFWDFDGLQLVGAIERAVGRPVKMRRMSWLAIKLAAPFVPLFREVLEMQYLWHMPLRMSNGKLTDFLGAEPKTPVDIAVSATLTSLGCIEQPRVPASLHRPVDAGGRV | failed
RYREGLSEALKEPEAKDPGFLERLVALYEEGGEDLLTPPGRVDVRVGEVEGLALVQAGFQKGEWLGELTLIGPLRMRYAEALSVAFSLSQVYTGQHAD | failed
MAMSHLFLSSSPQSSLALRLHSTTQFTLSYSKNNKDCSFQSANEAKVSKRSLLCRAIHMESGHSGEQPKKLNFDNLLRRTKHVWDNSPQPVKEFPWNRAFGNFIQLVLDLAISVVKFLFVPILAVSSISEMSYCAHERKLALVPFPLVIGMVVAGVLQETALKISPRLKEAEVPWHLIAMMMFFTLIKLPGPYYPYWGRLLVPHFANGVLLRALWSMFFWYKKTRNTSGNPLQNHSLETE | failed
MSYNFEEERVIKEIREKNAKRVLLQFPEGLKYFSIDIVKKLREKLPNVNFIISGEPSWGACDIAEDEAQQVNADLIIHFGHTPYTWYYPKFPTIFINAESNLDISENALHSLENDISKYNGRKISLTATLQHVRLLSKIKSFLEDKGYDIVIGKPSNRFMFDGQVLGCDYKAAEVEADIYVIVSGGLFHALGLGLATNKPTIKLDPYLQKSEDITNDVRKILKVRYGKILQALDKRSWVIIQGVKVGQNRPNMIKYFYDKLTEKGYDVFTVTNKVLTLDILRNLDRNYIDVFLVTSCPRLPIDDLYNYEKPVLTPGEAKMIINNSLEPYIFPW | failed
MTIIDDGKLKKAITAASLGNAMEWFDFGVYGFVAYALGKVFFPDANPSVQMIAALGTFSVPFLIRPLGGLFFGMLGDKYGRQKILAITIVIMSISTFCIGLIPSYATIGIWAPILLLLCKMAQGFSVGGEYTGASIFVAEYSPDRKRGFMGSWLDFGSIAGFVMGAGVVVLISSVVGEQNFLDWGWRIPFFLALPLGIIGLYLRHALEETPAFQQHVDTMEQGDREGLQDGPKVSFKEIATKHWRSLLTCIGLVISTNVTYYMLLTYMPSYLSHNLHYSEDHGVLIIIAIMVGMLFVQPVIGMLSDRFGRRPFILIGSVALFALSIPAFIMINSNVTGLIFAGLLLLAVVLNCFIGVMASSLPAMFPTHIRFSALASAFNISVLIAGLTPTLAAWLVETTQNLMMPAYYLMVIAVVGMATGLSMKETANRPLKGATPAASDIQEAKEILGEHYDNIEQKIEDIDQEIADLQAKRSRLVQQHPRIND | failed
MDKRFVQAHKEARWALWLTLLYLAAWLAAAYLPGVAIGFTGLPHWFEMACLLVPLLFILLCWAMVKLIFRDISLEDDDAV | failed
MSLQLINLNSDLKRLRDEGYFIQVKNGFLIMRDVPYVNSNRHVCRGTIISSLSLAGDRTRIPDTHVVHFDGDMPCNAEGEALNAVVLQSSIFDLGRGITAKHMFSSKPKSGYTDYYHKMTTYASILSGHAEVLNSGISPKVFSTPEDEEDSVFNYTETASGRVGIGALSDLLTEE | failed
